This series deals with Escherichia coli TOP10. Put plainly: shrunken log2 fold change of peptide-encoding DNA abundance (4.5 h post-induction vs induction); higher = less antimicrobial activity (less host growth inhibition). The settings on record: time post-induction: 4.5 h; library: site-saturation at positions 5, 18, 19, 20.

Here are results for 125 sequences from the supplement of paper PMC9112550, “Optimization of the antimicrobial peptide Bac7 by deep mutational scanning” (BMC Biology, 2022).
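Note: peptides expressed intracellularly from a pBAD plasmid library in pooled LB shake-flask culture, induced with 0.3% L-arabinose, DNA abundance read by NGS, three biological replicates, DESeq2 with apeglm shrinkage.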

For RRIRDRPPRLPRPRPRPNRWPRP, the “shrunken log2 fold change” value was 0.0049. In the case of RRIRARPPRLPRPRPRPKPGPRP it was 0.644; in that of RRIRIRPPRLPRPRPRPRPVPRP, 0.371; in that of RRIRIRPPRLPRPRPRPAFNPRP, -0.0935. As for RRIRLRPPRLPRPRPRPVTCPRP, the figure is -0.125; as for RRIRMRPPRLPRPRPRPWHWPRP, 0.0862. As for RRIRIRPPRLPRPRPRPLHEPRP, the figure is -0.191; as for RRIRERPPRLPRPRPRPKAAPRP, 0.0382. On to RRIRPRPPRLPRPRPRPDETPRP, for which the “shrunken log2 fold change” value is -0.088. RRIRQRPPRLPRPRPRPDNFPRP: the “shrunken log2 fold change” value was determined as 0.013. Consider RRIRQRPPRLPRPRPRPAATPRP, for which the “shrunken log2 fold change” value amounted to 0.732.

With RRIRLRPPRLPRPRPRPVAWPRP, the “shrunken log2 fold change” value was 0.225. In the case of RRIRKRPPRLPRPRPRPRQSPRP it was 0.0892; in that of RRIRPRPPRLPRPRPRPVQLPRP, -0.135; in that of RRIRYRPPRLPRPRPRPTRHPRP, -0.00457.

Take RRIRERPPRLPRPRPRPWYFPRP: the “shrunken log2 fold change” value was -0.171.

Regarding RRIRPRPPRLPRPRPRPGDAPRP, the “shrunken log2 fold change” value is 0.398.

RRIRRRPPRLPRPRPRPMCMPRP: the “shrunken log2 fold change” value is -0.0115.

As to RRIRLRPPRLPRPRPRPWKIPRP, the “shrunken log2 fold change” value is 0.095. In the case of RRIRTRPPRLPRPRPRPFQAPRP it was -0.0372; in that of RRIRERPPRLPRPRPRPLWCPRP, -0.0233; in that of RRIRWRPPRLPRPRPRPQDVPRP, -0.0384. RRIRWRPPRLPRPRPRPLWWPRP: the “shrunken log2 fold change” value worked out at 0.927. In the case of RRIRGRPPRLPRPRPRPVDTPRP, the “shrunken log2 fold change” value was 0.678. As for RRIRNRPPRLPRPRPRPRTSPRP, the “shrunken log2 fold change” value was -0.0838. As for RRIRKRPPRLPRPRPRPSGTPRP, the “shrunken log2 fold change” value came to 0.113.

With RRIRCRPPRLPRPRPRPKMIPRP, the “shrunken log2 fold change” value is -0.727. In the case of RRIRPRPPRLPRPRPRPDSWPRP it was 0.392. Consider RRIRWRPPRLPRPRPRPETVPRP, for which the “shrunken log2 fold change” value was -0.0769. In the case of RRIRARPPRLPRPRPRPINPPRP it was 0.0479. In the case of RRIRSRPPRLPRPRPRPTSVPRP it was 0.00616; in that of RRIRMRPPRLPRPRPRPATRPRP, 1.58.

Take RRIRSRPPRLPRPRPRPEQIPRP: the “shrunken log2 fold change” value was determined as 0.157. For RRIRCRPPRLPRPRPRPGDPPRP, the “shrunken log2 fold change” value turned out to be 0.132.

Take RRIRCRPPRLPRPRPRPWMSPRP: the “shrunken log2 fold change” value was -0.824. For the sequence RRIRRRPPRLPRPRPRPATMPRP, the “shrunken log2 fold change” value stood at 0.876. In the case of RRIRLRPPRLPRPRPRPAELPRP it was -0.172; in that of RRIRKRPPRLPRPRPRPTSGPRP, -0.064. As for RRIRQRPPRLPRPRPRPIDHPRP, the figure is -0.0445. In the case of RRIRNRPPRLPRPRPRPGFSPRP it was 0.0167; in that of RRIRCRPPRLPRPRPRPLNEPRP, -0.0566. As for RRIRDRPPRLPRPRPRPCRLPRP, the “shrunken log2 fold change” value was determined as 0.00469. In the case of RRIRYRPPRLPRPRPRPCVKPRP it was -0.0312. As for RRIRVRPPRLPRPRPRPSWMPRP, the “shrunken log2 fold change” value was -0.139.

Consider RRIRKRPPRLPRPRPRPYIIPRP, for which the “shrunken log2 fold change” value was -0.0823. As to RRIRLRPPRLPRPRPRPVTFPRP, the “shrunken log2 fold change” value was -0.0737. Turning to RRIRNRPPRLPRPRPRPCHKPRP, the “shrunken log2 fold change” value was -0.00663. In the case of RRIRMRPPRLPRPRPRPFMQPRP it was -0.00899; in that of RRIRCRPPRLPRPRPRPVNTPRP, -0.259; in that of RRIRSRPPRLPRPRPRPFRNPRP, -0.225. As for RRIRTRPPRLPRPRPRPRCKPRP, the figure is 0.0432. On to RRIRMRPPRLPRPRPRPKAKPRP, for which the “shrunken log2 fold change” value was 0.0227. With RRIRRRPPRLPRPRPRPTEGPRP, the “shrunken log2 fold change” value was determined as 0.18.

Consider RRIRQRPPRLPRPRPRPQHPPRP, for which the “shrunken log2 fold change” value was -0.131. Turning to RRIRARPPRLPRPRPRPADDPRP, the “shrunken log2 fold change” value is 0.409. As to RRIRFRPPRLPRPRPRPACAPRP, the “shrunken log2 fold change” value worked out at 0.291. As for RRIRSRPPRLPRPRPRPWIRPRP, the “shrunken log2 fold change” value was -0.207. In the case of RRIRMRPPRLPRPRPRPMWAPRP it was 0.392; in that of RRIRKRPPRLPRPRPRPPRWPRP, 1.07; in that of RRIRKRPPRLPRPRPRPEPHPRP, 0.829. Consider RRIRERPPRLPRPRPRPLDAPRP, for which the “shrunken log2 fold change” value was -0.17.

RRIRPRPPRLPRPRPRPLLRPRP: the “shrunken log2 fold change” value worked out at 1.73.

In the case of RRIRFRPPRLPRPRPRPRNPPRP, the “shrunken log2 fold change” value came to 0.118. As for RRIRHRPPRLPRPRPRPLRWPRP, the figure is 0.3. In the case of RRIRDRPPRLPRPRPRPACHPRP it was 0.0454. On to RRIRRRPPRLPRPRPRPTLIPRP, for which the “shrunken log2 fold change” value was 0.157. As for RRIRSRPPRLPRPRPRPPTKPRP, the figure is 0.0856. With RRIRCRPPRLPRPRPRPRQTPRP, the “shrunken log2 fold change” value stood at 0.781. As to RRIRYRPPRLPRPRPRPGSKPRP, the “shrunken log2 fold change” value was -0.0678. Turning to RRIRSRPPRLPRPRPRPCGSPRP, the “shrunken log2 fold change” value was 0.102. In the case of RRIRFRPPRLPRPRPRPEGSPRP it was -0.134; in that of RRIRNRPPRLPRPRPRPHNAPRP, -0.175; in that of RRIRRRPPRLPRPRPRPVIIPRP, -0.106.

Take RRIRNRPPRLPRPRPRPARYPRP: the “shrunken log2 fold change” value came to 0.0763.

Consider RRIRPRPPRLPRPRPRPRKMPRP, for which the “shrunken log2 fold change” value turned out to be 0.0337. As for RRIRSRPPRLPRPRPRPWMRPRP, the figure is 0.709; as for RRIRIRPPRLPRPRPRPKLRPRP, 0.349; as for RRIRKRPPRLPRPRPRPDCAPRP, 1.1. RRIRIRPPRLPRPRPRPHGKPRP: the “shrunken log2 fold change” value is -0.326. Consider RRIRNRPPRLPRPRPRPFYLPRP, for which the “shrunken log2 fold change” value was -0.0716. As to RRIRLRPPRLPRPRPRPKLAPRP, the “shrunken log2 fold change” value is 0.098. In the case of RRIRIRPPRLPRPRPRPGCYPRP it was -0.715; in that of RRIRKRPPRLPRPRPRPESHPRP, -0.00766; in that of RRIRIRPPRLPRPRPRPITMPRP, -1.08. As for RRIRSRPPRLPRPRPRPDNMPRP, the figure is -0.208. As for RRIRIRPPRLPRPRPRPATPPRP, the figure is 0.0979; as for RRIRPRPPRLPRPRPRPQYPPRP, -0.133; as for RRIRFRPPRLPRPRPRPIVIPRP, -0.205. For RRIRCRPPRLPRPRPRPDMQPRP, the “shrunken log2 fold change” value is -0.672. As for RRIRGRPPRLPRPRPRPTDAPRP, the figure is 1.14; as for RRIRGRPPRLPRPRPRPGNFPRP, -0.00767. In the case of RRIRMRPPRLPRPRPRPWNSPRP it was -0.00149; in that of RRIRYRPPRLPRPRPRPNSFPRP, -0.0457; in that of RRIRNRPPRLPRPRPRPWTQPRP, -0.0178.

With RRIRVRPPRLPRPRPRPRGFPRP, the “shrunken log2 fold change” value stood at 0.26.

Turning to RRIRRRPPRLPRPRPRPTNTPRP, the “shrunken log2 fold change” value stood at 0.142. In the case of RRIRQRPPRLPRPRPRPWMTPRP it was -0.00186.

RRIRHRPPRLPRPRPRPRPFPRP: the “shrunken log2 fold change” value is -0.18. As to RRIRRRPPRLPRPRPRPTEMPRP, the “shrunken log2 fold change” value worked out at 0.477.

With RRIRNRPPRLPRPRPRPEPCPRP, the “shrunken log2 fold change” value is -0.0302.

Turning to RRIRDRPPRLPRPRPRPLAIPRP, the “shrunken log2 fold change” value turned out to be 0.0447. As for RRIRARPPRLPRPRPRPLPHPRP, the figure is 0.209; as for RRIRFRPPRLPRPRPRPSAEPRP, 0.0747; as for RRIRCRPPRLPRPRPRPVKAPRP, 0.0593. Regarding RRIRCRPPRLPRPRPRPGICPRP, the “shrunken log2 fold change” value was -0.0835. As for RRIRCRPPRLPRPRPRPYDCPRP, the figure is -0.451. In the case of RRIRQRPPRLPRPRPRPIYMPRP it was -0.113. In the case of RRIRFRPPRLPRPRPRPRIGPRP it was 0.543. For RRIRARPPRLPRPRPRPFHDPRP, the “shrunken log2 fold change” value was -0.356. For the sequence RRIRRRPPRLPRPRPRPSGMPRP, the “shrunken log2 fold change” value is -0.0586. For the sequence RRIRVRPPRLPRPRPRPQMRPRP, the “shrunken log2 fold change” value was determined as 0.458. In the case of RRIRQRPPRLPRPRPRPYFSPRP it was -0.451. Take RRIRVRPPRLPRPRPRPHHDPRP: the “shrunken log2 fold change” value is -0.37. As for RRIRPRPPRLPRPRPRPSEEPRP, the figure is 0.591; as for RRIRYRPPRLPRPRPRPKAHPRP, -0.376. On to RRIRWRPPRLPRPRPRPREHPRP, for which the “shrunken log2 fold change” value is 0.822. As for RRIRGRPPRLPRPRPRPHWIPRP, the figure is -0.304; as for RRIRHRPPRLPRPRPRPCLTPRP, -0.0273.

RRIRTRPPRLPRPRPRPFFNPRP: the “shrunken log2 fold change” value is -0.582. On to RRIRDRPPRLPRPRPRPSQAPRP, for which the “shrunken log2 fold change” value was determined as 0.136. In the case of RRIRNRPPRLPRPRPRPSYEPRP it was -0.999.

As to RRIRPRPPRLPRPRPRPLDHPRP, the “shrunken log2 fold change” value was -0.114. Consider RRIRHRPPRLPRPRPRPSGSPRP, for which the “shrunken log2 fold change” value is -0.175. In the case of RRIRRRPPRLPRPRPRPHAQPRP it was 0.0722; in that of RRIRNRPPRLPRPRPRPLKYPRP, -0.0547.
